Results reported in US20200270325A1 (Merck Sharp & Dohme, published 2020).
Numbered stars: 1 amine (or outer) side, 2 acyl side, 3 side chain; on linkers, the order of the positions; unused ones are H or OH. Square brackets hold non-standard residues; d marks the D form. Primed or numbered codes have the meaning given here. Side chains are listed from the residue outwards. Ends that are not written are not given here. * marks the point of attachment. Phe(4-CH2NH2) = NCc1ccc(C[C@H](N)C(=O)O)cc1; C18 diacid = O=C(O)CCCCCCCCCCCCCCCCC(=O)*; C16 diacid = O=C(O)CCCCCCCCCCCCCCC(=O)*; γGlu = O=C(O)[C@H](CCC(=O)[*:2])N[*:1]; Met(O2) = CS(=O)(=O)CC[C@H](N)C(=O)O; αMeD = C[C@](N)(CC(=O)O)C(=O)O; αMeS = C[C@](N)(CO)C(=O)O; PEG2′ = not defined here; AEEA = NCCOCCOCC(=O)O; Aib = CC(C)(N)C(=O)O

B1: TP620 (peptide)
peptide: H[αMeS]QGTFTSDYSKYLD[Aib]RAAK([AEEA-AEEA-γGlu-C18 diacid])DFVQWL[Met(O2)][αMeD]T-NH2
modifications: N-terminus assumed
SMILES: CC(C)C[C@H](NC(=O)[C@H](Cc1ccc(O)cc1)NC(=O)[C@H](CCCCN)NC(=O)[C@H](CO)NC(=O)[C@H](Cc1ccc(O)cc1)NC(=O)[C@H](CC(=O)O)NC(=O)[C@H](CO)NC(=O)[C@@H](NC(=O)[C@H](Cc1ccccc1)NC(=O)[C@@H](NC(=O)CNC(=O)[C@H](CCC(N)=O)NC(=O)[C@](C)(CO)NC(=O)[C@@H](N)Cc1c[nH]cn1)[C@@H](C)O)[C@@H](C)O)C(=O)N[C@@H](CC(=O)O)C(=O)NC(C)(C)C(=O)N[C@@H](CCCNC(=N)N)C(=O)N[C@@H](C)C(=O)N[C@@H](C)C(=O)N[C@@H](CCCCNC(=O)COCCOCCNC(=O)COCCOCCNC(=O)CC[C@H](NC(=O)CCCCCCCCCCCCCCCCC(=O)O)C(=O)O)C(=O)N[C@@H](CC(=O)O)C(=O)N[C@@H](Cc1ccccc1)C(=O)N[C@H](C(=O)N[C@@H](CCC(N)=O)C(=O)N[C@@H](Cc1c[nH]c2ccccc12)C(=O)N[C@@H](CC(C)C)C(=O)N[C@@H](CCS(C)(=O)=O)C(=O)N[C@@](C)(CC(=O)O)C(=O)N[C@H](C(N)=O)[C@@H](C)O)C(C)C
B2: TP622 (peptide)
peptide: H[Aib]QGTFTSD[Phe(4-CH2NH2)]([AEEA-γGlu-C16 diacid])SKYLDARAAQDFVQWL[Met(O2)]DT-NH2
modifications: N-terminus assumed
SMILES: CC(C)C[C@H](NC(=O)[C@H](Cc1ccc(O)cc1)NC(=O)[C@H](CCCCN)NC(=O)[C@H](CO)NC(=O)[C@H](Cc1ccc(CNC(=O)COCCOCCNC(=O)CC[C@H](NC(=O)CCCCCCCCCCCCCCC(=O)O)C(=O)O)cc1)NC(=O)[C@H](CC(=O)O)NC(=O)[C@H](CO)NC(=O)[C@@H](NC(=O)[C@H](Cc1ccccc1)NC(=O)[C@@H](NC(=O)CNC(=O)[C@H](CCC(N)=O)NC(=O)C(C)(C)NC(=O)[C@@H](N)Cc1c[nH]cn1)[C@@H](C)O)[C@@H](C)O)C(=O)N[C@@H](CC(=O)O)C(=O)N[C@@H](C)C(=O)N[C@@H](CCCNC(=N)N)C(=O)N[C@@H](C)C(=O)N[C@@H](C)C(=O)N[C@@H](CCC(N)=O)C(=O)N[C@@H](CC(=O)O)C(=O)N[C@@H](Cc1ccccc1)C(=O)N[C@H](C(=O)N[C@@H](CCC(N)=O)C(=O)N[C@@H](Cc1c[nH]c2ccccc12)C(=O)N[C@@H](CC(C)C)C(=O)N[C@@H](CCS(C)(=O)=O)C(=O)N[C@@H](CC(=O)O)C(=O)N[C@H](C(N)=O)[C@@H](C)O)C(C)C
B3: TP623 (peptide)
peptide: H[Aib]QGTFTSD[Phe(4-CH2NH2)]([AEEA-γGlu-C18 diacid])SKYLDARAAQDFVQWL[Met(O2)]DT-NH2
modifications: N-terminus assumed
SMILES: CC(C)C[C@H](NC(=O)[C@H](Cc1ccc(O)cc1)NC(=O)[C@H](CCCCN)NC(=O)[C@H](CO)NC(=O)[C@H](Cc1ccc(CNC(=O)COCCOCCNC(=O)CC[C@H](NC(=O)CCCCCCCCCCCCCCCCC(=O)O)C(=O)O)cc1)NC(=O)[C@H](CC(=O)O)NC(=O)[C@H](CO)NC(=O)[C@@H](NC(=O)[C@H](Cc1ccccc1)NC(=O)[C@@H](NC(=O)CNC(=O)[C@H](CCC(N)=O)NC(=O)C(C)(C)NC(=O)[C@@H](N)Cc1c[nH]cn1)[C@@H](C)O)[C@@H](C)O)C(=O)N[C@@H](CC(=O)O)C(=O)N[C@@H](C)C(=O)N[C@@H](CCCNC(=N)N)C(=O)N[C@@H](C)C(=O)N[C@@H](C)C(=O)N[C@@H](CCC(N)=O)C(=O)N[C@@H](CC(=O)O)C(=O)N[C@@H](Cc1ccccc1)C(=O)N[C@H](C(=O)N[C@@H](CCC(N)=O)C(=O)N[C@@H](Cc1c[nH]c2ccccc12)C(=O)N[C@@H](CC(C)C)C(=O)N[C@@H](CCS(C)(=O)=O)C(=O)N[C@@H](CC(=O)O)C(=O)N[C@H](C(N)=O)[C@@H](C)O)C(C)C
B4: TP617 (peptide)
peptide: H[αMeS]QGTFTSDYSKYLDARAAQK([AEEA-AEEA-γGlu-C18 diacid])FVQWL[Met(O2)][αMeD]T-NH2
modifications: N-terminus assumed
SMILES: CC(C)C[C@H](NC(=O)[C@H](Cc1ccc(O)cc1)NC(=O)[C@H](CCCCN)NC(=O)[C@H](CO)NC(=O)[C@H](Cc1ccc(O)cc1)NC(=O)[C@H](CC(=O)O)NC(=O)[C@H](CO)NC(=O)[C@@H](NC(=O)[C@H](Cc1ccccc1)NC(=O)[C@@H](NC(=O)CNC(=O)[C@H](CCC(N)=O)NC(=O)[C@](C)(CO)NC(=O)[C@@H](N)Cc1c[nH]cn1)[C@@H](C)O)[C@@H](C)O)C(=O)N[C@@H](CC(=O)O)C(=O)N[C@@H](C)C(=O)N[C@@H](CCCNC(=N)N)C(=O)N[C@@H](C)C(=O)N[C@@H](C)C(=O)N[C@@H](CCC(N)=O)C(=O)N[C@@H](CCCCNC(=O)COCCOCCNC(=O)COCCOCCNC(=O)CC[C@H](NC(=O)CCCCCCCCCCCCCCCCC(=O)O)C(=O)O)C(=O)N[C@@H](Cc1ccccc1)C(=O)N[C@H](C(=O)N[C@@H](CCC(N)=O)C(=O)N[C@@H](Cc1c[nH]c2ccccc12)C(=O)N[C@@H](CC(C)C)C(=O)N[C@@H](CCS(C)(=O)=O)C(=O)N[C@@](C)(CC(=O)O)C(=O)N[C@H](C(N)=O)[C@@H](C)O)C(C)C
B5: TP621 (peptide)
peptide: H[αMeS]QGTFTSDYSKYLD[Aib]RAAQK([AEEA-AEEA-γGlu-C18 diacid])FVQWL[Met(O2)][αMeD]T-NH2
modifications: N-terminus assumed
SMILES: CC(C)C[C@H](NC(=O)[C@H](Cc1ccc(O)cc1)NC(=O)[C@H](CCCCN)NC(=O)[C@H](CO)NC(=O)[C@H](Cc1ccc(O)cc1)NC(=O)[C@H](CC(=O)O)NC(=O)[C@H](CO)NC(=O)[C@@H](NC(=O)[C@H](Cc1ccccc1)NC(=O)[C@@H](NC(=O)CNC(=O)[C@H](CCC(N)=O)NC(=O)[C@](C)(CO)NC(=O)[C@@H](N)Cc1c[nH]cn1)[C@@H](C)O)[C@@H](C)O)C(=O)N[C@@H](CC(=O)O)C(=O)NC(C)(C)C(=O)N[C@@H](CCCNC(=N)N)C(=O)N[C@@H](C)C(=O)N[C@@H](C)C(=O)N[C@@H](CCC(N)=O)C(=O)N[C@@H](CCCCNC(=O)COCCOCCNC(=O)COCCOCCNC(=O)CC[C@H](NC(=O)CCCCCCCCCCCCCCCCC(=O)O)C(=O)O)C(=O)N[C@@H](Cc1ccccc1)C(=O)N[C@H](C(=O)N[C@@H](CCC(N)=O)C(=O)N[C@@H](Cc1c[nH]c2ccccc12)C(=O)N[C@@H](CC(C)C)C(=O)N[C@@H](CCS(C)(=O)=O)C(=O)N[C@@](C)(CC(=O)O)C(=O)N[C@H](C(N)=O)[C@@H](C)O)C(C)C
B6: TP618 (peptide)
peptide: H[αMeS]QGTFTSDYSKYLD[Aib]RAAK([AEEA-AEEA-γGlu-C16 diacid])DFVQWL[Met(O2)][αMeD]T-NH2
modifications: N-terminus assumed
SMILES: CC(C)C[C@H](NC(=O)[C@H](Cc1ccc(O)cc1)NC(=O)[C@H](CCCCN)NC(=O)[C@H](CO)NC(=O)[C@H](Cc1ccc(O)cc1)NC(=O)[C@H](CC(=O)O)NC(=O)[C@H](CO)NC(=O)[C@@H](NC(=O)[C@H](Cc1ccccc1)NC(=O)[C@@H](NC(=O)CNC(=O)[C@H](CCC(N)=O)NC(=O)[C@](C)(CO)NC(=O)[C@@H](N)Cc1c[nH]cn1)[C@@H](C)O)[C@@H](C)O)C(=O)N[C@@H](CC(=O)O)C(=O)NC(C)(C)C(=O)N[C@@H](CCCNC(=N)N)C(=O)N[C@@H](C)C(=O)N[C@@H](C)C(=O)N[C@@H](CCCCNC(=O)COCCOCCNC(=O)COCCOCCNC(=O)CC[C@H](NC(=O)CCCCCCCCCCCCCCC(=O)O)C(=O)O)C(=O)N[C@@H](CC(=O)O)C(=O)N[C@@H](Cc1ccccc1)C(=O)N[C@H](C(=O)N[C@@H](CCC(N)=O)C(=O)N[C@@H](Cc1c[nH]c2ccccc12)C(=O)N[C@@H](CC(C)C)C(=O)N[C@@H](CCS(C)(=O)=O)C(=O)N[C@@](C)(CC(=O)O)C(=O)N[C@H](C(N)=O)[C@@H](C)O)C(C)C
B7: TP616 (peptide)
peptide: H[αMeS]QGTFTSDYSKYLDARAAK([AEEA-AEEA-γGlu-C18 diacid])DFVQWL[Met(O2)][αMeD]T-NH2
modifications: N-terminus assumed
SMILES: CC(C)C[C@H](NC(=O)[C@H](Cc1ccc(O)cc1)NC(=O)[C@H](CCCCN)NC(=O)[C@H](CO)NC(=O)[C@H](Cc1ccc(O)cc1)NC(=O)[C@H](CC(=O)O)NC(=O)[C@H](CO)NC(=O)[C@@H](NC(=O)[C@H](Cc1ccccc1)NC(=O)[C@@H](NC(=O)CNC(=O)[C@H](CCC(N)=O)NC(=O)[C@](C)(CO)NC(=O)[C@@H](N)Cc1c[nH]cn1)[C@@H](C)O)[C@@H](C)O)C(=O)N[C@@H](CC(=O)O)C(=O)N[C@@H](C)C(=O)N[C@@H](CCCNC(=N)N)C(=O)N[C@@H](C)C(=O)N[C@@H](C)C(=O)N[C@@H](CCCCNC(=O)COCCOCCNC(=O)COCCOCCNC(=O)CC[C@H](NC(=O)CCCCCCCCCCCCCCCCC(=O)O)C(=O)O)C(=O)N[C@@H](CC(=O)O)C(=O)N[C@@H](Cc1ccccc1)C(=O)N[C@H](C(=O)N[C@@H](CCC(N)=O)C(=O)N[C@@H](Cc1c[nH]c2ccccc12)C(=O)N[C@@H](CC(C)C)C(=O)N[C@@H](CCS(C)(=O)=O)C(=O)N[C@@](C)(CC(=O)O)C(=O)N[C@H](C(N)=O)[C@@H](C)O)C(C)C

The binders below were run against human GLP-1 receptor (GLP1R) (human, UniProt P43220 24-463) (assay: cell-based or functional assay).

First: B1
Second: B2
The “GLP1R EC50 human” value of the first is 95-fold higher: 8.58 nM for the first, 0.09 nM for the second.

Going from B3 to H[αMS]QGTFTSDYSKYLD[Aib]RAAQK([PEG2′-PEG2′-γGlu-C16 diacid])FVQWL[Met(O2)][αMD]T-NH2 [TP619], the “GLP1R EC50 human” value rises from 0.17 nM to 0.38 nM (2.2-fold).

Going from B4 to B5, the “GLP1R EC50 human” value rises from 0.76 nM to 1.94 nM (2.6-fold).

B6 and B7 are within 1.5-fold of each other in “GLP1R EC50 human” value: 2.48 nM for the first, 1.96 nM for the second.

Each binder was assayed against human Glucagon receptor (GCGR) (human, UniProt P47871 26-477) (assay: cell-based or functional assay).
Chain of human Glucagon receptor (GCGR) (P47871 26-477): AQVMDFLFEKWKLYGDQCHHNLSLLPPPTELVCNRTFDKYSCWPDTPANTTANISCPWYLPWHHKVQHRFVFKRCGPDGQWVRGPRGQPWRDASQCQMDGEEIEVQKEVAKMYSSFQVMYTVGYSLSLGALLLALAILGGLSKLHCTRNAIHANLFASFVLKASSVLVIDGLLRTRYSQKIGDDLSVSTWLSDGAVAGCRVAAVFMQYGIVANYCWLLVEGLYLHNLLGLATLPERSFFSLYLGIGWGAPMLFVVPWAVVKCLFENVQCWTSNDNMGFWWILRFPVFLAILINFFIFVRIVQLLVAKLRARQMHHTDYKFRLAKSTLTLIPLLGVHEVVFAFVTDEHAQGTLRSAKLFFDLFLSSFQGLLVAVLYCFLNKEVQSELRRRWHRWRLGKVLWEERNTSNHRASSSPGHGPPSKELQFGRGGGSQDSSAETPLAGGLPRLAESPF

First: B1
Second: B2
The “GCGR EC50 human” value of the first is 42-fold higher: 1.26 nM for the first, 0.03 nM for the second.

Compared with B3, H[αMS]QGTFTSDYSKYLD[Aib]RAAQK([PEG2′-PEG2′-γGlu-C16 diacid])FVQWL[Met(O2)][αMD]T-NH2 [TP619] is 1.8-fold lower in “GCGR EC50 human” value: 0.09 nM for the first, 0.05 nM for the second.

First: B4
Second: B5
The “GCGR EC50 human” value of the first is 2.2-fold higher: 0.56 nM for the first, 0.25 nM for the second.

Going from B6 to B7, the “GCGR EC50 human” value rises from 0.36 nM to 1.39 nM (3.9-fold).
